The values below come from publication PMC8494430, “Development of a fluorogenic ADAMTS-7 substrate” (Journal of Enzyme Inhibition and Medicinal Chemistry, 2021).

Where two headings read alike, the source gives them in different places.

A short description of data set [1]: Appearance of solution upon dilution of peptide in assay buffer (solubility). In kind it is physicochemical. The settings on record: 10 mM DMSO stock diluted in assay buffer. As to the method: The cleavage sites ^193Arg↓Ala^194 and ^195Glu↓Ala^196 were chosen to design the FRET substrate ATS7FP0 (Table 1). This peptide covers residues Ala^188-Ala^198 in LTBP4S and contains a FAM/TAMRA fluorophore/quencher pair. The quencher is covalently linked to the ε amino group of an extra C-terminal lysine residue. Stock solutions were routinely prepared at 10 mM in DMSO and stored at −80 °C. […] This was most likely due to the high content in hydrophobic amino acids of this peptide, which added to the hydrophobicity of the fluorophore/quencher pair. Nevertheless, ATS7FP0 generated fluorescence upon cleavage by ADAMTS-7 (Figure 2(A)). With the aim to improve both solubility and cleavage rate by ADAMTS-7, seven additional peptides were designed using the sequence of ATS7FP0 as a starting point. The N-terminal alanine residue present in ATS7FP0 was removed to generate peptide ATS7FP7 with a reduced aliphatic index (Table 1). […] To assess the effect of a P4′ proline residue on the cleavage rate, peptide ATS7FP7 was modified to generate ATS7FP8. […] Since we also determined that ADAMTS-7 prefers arginine in P1 (Figure 1(D)), we mutated one alanine residue in the parental sequence into arginine with the aim to improve both cleavage rate and hydrophilicity, thus generating peptide ATS7FP3. […]

In data set [2] the target is ADAMTS7-T8 (recombinant human ADAMTS-7 construct lacking the C-terminal PLAC domain) (human) (UniProt Q9UKP4).
ADAMTS7-T8 (recombinant human ADAMTS-7 construct lacking the C-terminal PLAC domain) (human), sequence (Q9UKP4 28-1686): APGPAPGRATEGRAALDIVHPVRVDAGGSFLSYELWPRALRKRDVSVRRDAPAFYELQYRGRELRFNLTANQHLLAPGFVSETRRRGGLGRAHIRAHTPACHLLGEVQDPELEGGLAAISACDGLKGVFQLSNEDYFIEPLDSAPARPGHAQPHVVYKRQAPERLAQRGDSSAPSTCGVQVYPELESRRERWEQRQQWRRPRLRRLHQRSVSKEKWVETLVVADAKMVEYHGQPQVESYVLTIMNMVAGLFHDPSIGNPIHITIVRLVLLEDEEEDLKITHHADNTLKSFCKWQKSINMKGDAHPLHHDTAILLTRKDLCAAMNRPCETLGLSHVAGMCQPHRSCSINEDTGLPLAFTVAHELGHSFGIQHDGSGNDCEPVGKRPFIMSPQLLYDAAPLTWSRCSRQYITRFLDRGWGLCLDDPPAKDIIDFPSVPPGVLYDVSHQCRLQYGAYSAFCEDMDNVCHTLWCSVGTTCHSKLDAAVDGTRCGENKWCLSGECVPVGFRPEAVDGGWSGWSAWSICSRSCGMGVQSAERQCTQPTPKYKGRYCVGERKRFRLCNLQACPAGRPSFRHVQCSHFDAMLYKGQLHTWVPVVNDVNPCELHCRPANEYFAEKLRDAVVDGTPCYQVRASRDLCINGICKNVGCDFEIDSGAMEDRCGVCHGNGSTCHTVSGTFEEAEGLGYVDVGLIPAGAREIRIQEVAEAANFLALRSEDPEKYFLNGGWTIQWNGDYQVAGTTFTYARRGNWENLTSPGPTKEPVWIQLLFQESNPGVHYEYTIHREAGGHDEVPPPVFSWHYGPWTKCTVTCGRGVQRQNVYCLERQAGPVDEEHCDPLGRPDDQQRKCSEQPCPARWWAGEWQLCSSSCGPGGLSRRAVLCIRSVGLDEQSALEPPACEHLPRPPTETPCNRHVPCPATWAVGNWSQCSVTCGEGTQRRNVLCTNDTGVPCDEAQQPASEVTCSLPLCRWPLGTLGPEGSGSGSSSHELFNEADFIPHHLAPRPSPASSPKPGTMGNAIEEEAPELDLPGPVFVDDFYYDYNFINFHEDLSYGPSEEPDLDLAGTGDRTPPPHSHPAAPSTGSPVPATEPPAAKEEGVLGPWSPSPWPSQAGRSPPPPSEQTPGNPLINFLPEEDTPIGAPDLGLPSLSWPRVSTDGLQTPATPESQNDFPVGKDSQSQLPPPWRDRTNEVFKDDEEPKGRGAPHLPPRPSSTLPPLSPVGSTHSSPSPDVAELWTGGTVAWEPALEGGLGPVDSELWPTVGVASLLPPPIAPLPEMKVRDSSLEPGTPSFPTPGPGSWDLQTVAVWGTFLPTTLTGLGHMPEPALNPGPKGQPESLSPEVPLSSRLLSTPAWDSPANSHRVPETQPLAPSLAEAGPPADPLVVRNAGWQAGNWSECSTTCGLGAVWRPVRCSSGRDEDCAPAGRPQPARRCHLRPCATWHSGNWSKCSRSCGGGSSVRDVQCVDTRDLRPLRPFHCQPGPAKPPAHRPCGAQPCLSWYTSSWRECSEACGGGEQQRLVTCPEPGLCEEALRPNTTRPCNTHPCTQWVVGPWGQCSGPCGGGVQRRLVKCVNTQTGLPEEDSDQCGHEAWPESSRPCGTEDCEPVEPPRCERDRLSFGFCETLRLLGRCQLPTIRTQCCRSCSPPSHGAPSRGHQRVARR
The target in data set [3] is T1, ADAMTS-7 (Homo sapiens, UniProt Q9UKP4).
T1 construct: the recombinant construct ADAMTS7-T8, which lacks the C-terminal PLAC domain; made in house
T1 sequence (Q9UKP4 237-1631 limits assumed): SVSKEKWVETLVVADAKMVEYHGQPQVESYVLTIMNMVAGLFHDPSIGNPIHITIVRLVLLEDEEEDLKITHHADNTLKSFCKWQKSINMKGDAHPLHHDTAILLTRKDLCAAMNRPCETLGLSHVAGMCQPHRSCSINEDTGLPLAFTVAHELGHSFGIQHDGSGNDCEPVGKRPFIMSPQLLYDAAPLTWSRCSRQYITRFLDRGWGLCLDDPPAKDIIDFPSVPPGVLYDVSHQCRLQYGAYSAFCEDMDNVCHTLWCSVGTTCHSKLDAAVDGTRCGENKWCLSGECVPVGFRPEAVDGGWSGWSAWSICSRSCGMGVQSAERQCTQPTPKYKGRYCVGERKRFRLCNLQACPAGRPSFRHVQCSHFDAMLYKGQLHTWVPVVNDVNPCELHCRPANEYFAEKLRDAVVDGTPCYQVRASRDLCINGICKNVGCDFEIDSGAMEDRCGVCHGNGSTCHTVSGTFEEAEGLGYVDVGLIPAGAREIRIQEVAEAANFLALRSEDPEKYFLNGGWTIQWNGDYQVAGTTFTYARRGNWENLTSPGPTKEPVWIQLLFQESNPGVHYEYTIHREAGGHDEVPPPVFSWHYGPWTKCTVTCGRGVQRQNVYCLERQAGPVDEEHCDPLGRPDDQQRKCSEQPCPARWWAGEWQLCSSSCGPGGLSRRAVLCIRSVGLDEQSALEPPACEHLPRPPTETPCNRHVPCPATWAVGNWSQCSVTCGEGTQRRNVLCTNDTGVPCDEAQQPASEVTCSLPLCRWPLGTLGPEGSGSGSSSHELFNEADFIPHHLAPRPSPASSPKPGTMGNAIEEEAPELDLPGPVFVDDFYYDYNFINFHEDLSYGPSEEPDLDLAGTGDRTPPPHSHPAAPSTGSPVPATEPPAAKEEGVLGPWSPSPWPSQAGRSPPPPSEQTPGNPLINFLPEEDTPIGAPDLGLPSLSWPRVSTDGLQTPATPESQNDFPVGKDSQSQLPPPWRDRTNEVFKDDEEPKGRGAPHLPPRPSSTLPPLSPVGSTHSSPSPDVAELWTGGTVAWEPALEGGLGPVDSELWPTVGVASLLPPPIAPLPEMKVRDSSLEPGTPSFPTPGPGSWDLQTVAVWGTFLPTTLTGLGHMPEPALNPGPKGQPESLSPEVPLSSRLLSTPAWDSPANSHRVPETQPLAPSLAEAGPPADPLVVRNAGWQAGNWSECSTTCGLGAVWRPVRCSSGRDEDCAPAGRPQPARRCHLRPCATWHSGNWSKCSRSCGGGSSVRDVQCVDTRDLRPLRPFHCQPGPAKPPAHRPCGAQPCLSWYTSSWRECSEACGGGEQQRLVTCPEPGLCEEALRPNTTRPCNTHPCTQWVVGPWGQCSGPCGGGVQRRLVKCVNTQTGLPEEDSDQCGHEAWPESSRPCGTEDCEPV
As to the kind of experiment: Inhibition of ADAMTS-7 cleavage of FRET substrate ATS7FP7. The data set is classed as biochemical. The protocol: All enzyme assays were conducted in TNC-B buffer (50 mM Tris- HCl, pH 7.5, 150 mM NaCl, 10 mM CaCl2, and 0.02% NaN3) at 37 °C in 384 well plates (Cat. No: 784900, Greiner Bio-One, Austria). To avoid the formation of inhibitor or peptide aggregates, the detergent Brij-35 (0.05%) was added to TNC-B[13]. For inhibition studies, stock solutions of chemical compounds were prepared in dimethyl sulfoxide (DMSO) (10 mM). […] Blank samples were prepared using buffer only and the rate of cleavage for blank reactions was subtracted from the rates measured in the presence of enzyme. Upon addition of the indicated ADAMTS-7 FRET substrates (40 µM), the fluorescence was measured immediately using a FLUOstar Omega microplate reader (BMG Labtech, Germany) with an excitation filter wavelength of 485 nm and an emission filter wavelength of 520 nm.

Data set [4] deals with T1, ADAMTS-7. The following applies: read-out: Ki app for inhibition of cleavage of LTBP4; cited from earlier work.
The target of data set [5] is ADAMTS7-T8 (recombinant human ADAMTS-7 construct lacking the C-terminal PLAC domain) (human) (UniProt Q9UKP4). Nature of the data set: enzyme inhibition assay (cleavage of a FRET peptide); ADAMTS-7 (5 nM) pre-incubated 1 h at 37 °C with TIMP-4, then ATS7FP7 (40 µM) added; TNC-B buffer (50 mM Tris-HCl pH 7.5, 150 mM NaCl, 10 mM CaCl2, 0.02% NaN3) with 0.05% Brij-35; 384 well plates; apparent Ki from the Morrison equation for tight binding inhibitors.

By IC50 is commonly meant the point on the concentration scale where inhibition reaches its midpoint. Low readings indicate greater potency in that assay, high ones weaker potency in that assay.

As for “Ala-Glu-Ala-Ala-Ala-Arg↓Ala-Glu↓Ala-Ala-Ala-Lys [ATS7FP0]”, in data set [1], the “appearance of solution upon dilution in the assay buffer (solubility)” value is “non-homogenous”.

B1: Recombinant human tissue inhibitor of metalloproteinase (TIMP)-4 (natural protein)
chain: CSCAPAHPQQHICHSALVIRAKISSEKVVPASADPADTEKMLRYEIKQIKMFKGFEKVKDVQYIYTPFDSSLCGVKLEANSQKQYLLTGQVLSDGKVFIHLCNYIEPWEDLSLVQRESLNHHYHLNCGCQITTCYTVPCTISAPNECLWTDWLLERKLYGYQAQHYVCMKHVDGTCSWYRGHLPLRKEFVDIVQP
With B1, the IC50 of inhibition of ADAMTS-7 cleavage of the FRET peptide substrate ATS7FP7 in data set [2] is 18 nM. Besides, the Ki was 3.2 ± 1 nM with ADAMTS-7 [3] (5 nM ADAMTS-7, Morrison equation for tight binding inhibitors, read-out: Ki app (ATS7FP7 substrate)); 13 nM with ADAMTS-7 [4]; 3.2 nM in data set [5]. For the same molecule, the IC50 with ADAMTS-7 [3] (ATS7FP7 40 μM, 1 h preincubation, 37 °C) worked out at 18 ± 6 nM.
